The results in this text go back to PMC8557155 (Annals of Nuclear Medicine, 2021).

Details of series [1]: species or system human (Japanese patients). Conditions: in vivo.
A further series is described as follows: clinical. The arrangement: species or system human (Japanese patients). As to conditions: in vivo; for dose excreted: human, iv, 7.4 GBq, total radioactivity.

Turning to `C[C@@H](O)[C@H](NC(=O)[C@@H]1CSSC[C@H](NC(=O)[C@@H](Cc2ccccc2)NC(=O)CN2CCN(CC(=O)O)CCN(CC(=O)O)CCN(CC(=O)O)CC2)C(=O)N[C@@H](Cc2ccc(O)cc2)C(=O)N[C@H](Cc2c[nH]c3ccccc23)C(=O)N[C@@H](CCCCN)C(=O)N[C@@H]([C@@H](C)O)C(=O)N1)C(=O)O` [177Lu-DOTATATE, ^177Lu-DOTA^0-Tyr^3-octreotate, metal not drawn], in series [1], the “Fraction of the injected activity retained in the blood at 20 min after the injection” value is on record as 0.00351 % dose/g and the “Fraction of the injected activity retained in the blood at 4 h after the injection” value was determined as 0.00077 % dose/g. In addition, in series [1] (iv), the “Effective half-time, distribution phase” value was determined as 2.37 ± 0.30 h and the “Effective half-time, excretion phase” value turned out to be 42.7 ± 2.44 h. Moreover, in “clinical” (Biological cumulative urine excretion of radioactivity at 24 h after administration), the dose excreted turned out to be 71.2%. Moreover, the dose excreted in “clinical” (Biological cumulative urine excretion of radioactivity in the first 4 h) came out at 53.7%. The dose excreted in “clinical” (Cumulative urinary excretion of radioactivity within the initial 6 h) is 60.1%. In addition, in “clinical”, the “Effective urinary radioactivity concentration, 0–1 h” value stood at 4.7 ± 1.9 GBq/L; the “Effective urinary radioactivity concentration, 4–6 h” value was 1.3 ± 1.1 GBq/L; the “Effective urinary radioactivity concentration, 6–24 h” value was found to be 0.3 ± 0.1 GBq/L; the “Effective urinary radioactivity concentration, 24–48 h” value is reported as 0.07 ± 0.03 GBq/L.
